Assay results as given in article PMC11368889 (2024).

Biological target: Histone H3 (H3K9me3) (Homo sapiens, UniProt P68431)
Assay: fluorescence microscopy titration in fixed HEK293 cells (Hill1 fit)

B1: MPP8-Green (MPP8-mNeonGreen-NLS-MPP8) 55-117 (protein)
chain: GEDVFEVEKILDMKTEGGKVLYKVRWKGYTSDDDTWEPEIHLEDCKEVLLEFRKKIAENKAKA
Kd: 490 nM
